Assay results reported in US20220064329A1 (Novo Nordisk, published 2022).

T1: recombinant human activated Factor VII (FVIIa) (human, UniProt P08709 61-212; P08709 213-466, ten glutamate residues of the Gla domain may be gamma-carboxylated)
T1 construct: chains tethered by a disulfide bond; also called Factor VIIa; rFVIIa
T1 sequence 1: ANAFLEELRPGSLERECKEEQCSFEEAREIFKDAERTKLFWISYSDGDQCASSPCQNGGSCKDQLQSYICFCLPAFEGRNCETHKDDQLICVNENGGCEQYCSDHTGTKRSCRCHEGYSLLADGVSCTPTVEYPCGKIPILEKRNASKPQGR
T1 sequence 2: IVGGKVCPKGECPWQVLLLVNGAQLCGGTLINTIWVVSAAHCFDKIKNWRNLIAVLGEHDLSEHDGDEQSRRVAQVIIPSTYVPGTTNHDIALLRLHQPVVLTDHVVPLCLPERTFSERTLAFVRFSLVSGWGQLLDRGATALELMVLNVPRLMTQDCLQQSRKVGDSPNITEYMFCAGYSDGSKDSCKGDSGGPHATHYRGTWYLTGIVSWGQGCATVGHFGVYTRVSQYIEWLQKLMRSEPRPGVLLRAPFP


Molecular target: T1, recombinant human activated Factor VII …
Experiment: BLI (Fortebio)

| Kd | Binder |
| --- | --- |
| 0.78 nM | VH SEQ ID NO 562 / VL SEQ ID NO 326 (antibody, IgG4, V domains shown, humanized 11F2; IgG4 S228P/kappa) VH: QVQLQESGPGLVKPSDTLSLTCAVSGYSISSDSAWSWIRQPPGKGLEWIGYIQYSGSTNYNPSLKSRVTMSRDTSKNQFSLKLSSVTALDTAVYYCARSVNYYGNSFAVGPWGQGTLVTVSS VL: EIVLTQSPATLSLSPGERATLSCRASQGISDYLHWYQQKPGEAPRLLIKYTSQPATGIPARFSGSGSGTDFTLTISSLEPEDFGVYYCQNGHSFPLTFGAGTKLELK |
| 1.3 nM | VH SEQ ID NO 562 / VL SEQ ID NO 342 (antibody, IgG4, V domains shown, humanized 11F2; IgG4 S228P/kappa) VH: QVQLQESGPGLVKPSDTLSLTCAVSGYSISSDSAWSWIRQPPGKGLEWIGYIQYSGSTNYNPSLKSRVTMSRDTSKNQFSLKLSSVTALDTAVYYCARSVNYYGNSFAVGPWGQGTLVTVSS VL: EIVLTQSPATLSLSPGERATLSCRASQGISDYLHWYQQKPGQAPRLLIKYTSQPATGIPARFSGSGSGRDFTLTISSLEPEDFAVYYCQNGHSFPLTFGAGTKLELK |
| 7.7 nM | VH SEQ ID NO 562 / VL SEQ ID NO 406 (antibody, IgG4, V domains shown, humanized 11F2; IgG4 S228P/kappa) VH: QVQLQESGPGLVKPSDTLSLTCAVSGYSISSDSAWSWIRQPPGKGLEWIGYIQYSGSTNYNPSLKSRVTMSRDTSKNQFSLKLSSVTALDTAVYYCARSVNYYGNSFAVGPWGQGTLVTVSS VL: EIVLTQSPATLSLSPGERATLSCRASQGVSDYLAWYQQKPGQAPRLLIKYASQPATGIPARFSGSGSGTDFTLTISSLEPEDFAVYYCQNGHSFPLTFGAGTKLEIK |
| 1.2 nM | VH SEQ ID NO 562 / VL SEQ ID NO 334 (antibody, IgG4, V domains shown, humanized 11F2; IgG4 S228P/kappa) VH: QVQLQESGPGLVKPSDTLSLTCAVSGYSISSDSAWSWIRQPPGKGLEWIGYIQYSGSTNYNPSLKSRVTMSRDTSKNQFSLKLSSVTALDTAVYYCARSVNYYGNSFAVGPWGQGTLVTVSS VL: EIVLTQSPATLSLSPGERATLSCRASQGISDYLHWYQQKPGQAPRLLIKYASQPATGIPARFSGSGSGTDFTLTISSLEPEDFAVYYCQNGHSFPLTFGQGTKLEIK |
| 10 nM | VH SEQ ID NO 562 / VL SEQ ID NO 390 (antibody, IgG4, V domains shown, humanized 11F2; IgG4 S228P/kappa) VH: QVQLQESGPGLVKPSDTLSLTCAVSGYSISSDSAWSWIRQPPGKGLEWIGYIQYSGSTNYNPSLKSRVTMSRDTSKNQFSLKLSSVTALDTAVYYCARSVNYYGNSFAVGPWGQGTLVTVSS VL: EIVLTQSPATLSLSPGERATLSCRASQGVSDYLAWYQQKPGEAPRLLIKYASQPATGIPARFSGSGSGTDFTLTISSLEPEDFAVYYCQNGHSFPLTFGQGTKLEIK |
| 0.93 nM | VH SEQ ID NO 562 / VL SEQ ID NO 350 (antibody, IgG4, V domains shown, humanized 11F2; IgG4 S228P/kappa) VH: QVQLQESGPGLVKPSDTLSLTCAVSGYSISSDSAWSWIRQPPGKGLEWIGYIQYSGSTNYNPSLKSRVTMSRDTSKNQFSLKLSSVTALDTAVYYCARSVNYYGNSFAVGPWGQGTLVTVSS VL: EIVLTQSPATLSLSPGERATLSCRASQGISDYLHWYQQKPGQAPRLLIKYTSQPATGIPARFSGSGSGTDFTLTISSLEPEDFAVYYCQNGHSFPLTFGAGTKLELK |
| 0.95 nM | VH SEQ ID NO 562 / VL SEQ ID NO 358 (antibody, IgG4, V domains shown, humanized 11F2; IgG4 S228P/kappa) VH: QVQLQESGPGLVKPSDTLSLTCAVSGYSISSDSAWSWIRQPPGKGLEWIGYIQYSGSTNYNPSLKSRVTMSRDTSKNQFSLKLSSVTALDTAVYYCARSVNYYGNSFAVGPWGQGTLVTVSS VL: EIVLTQSPATLSLSPGERATLSCRASQGISDYLHWYQQKPGQAPRLLIKYTSQPATGIPARFSGSGSGTDFTLTISSLEPEDFAVYYCQNGHSFPLTFGQGTKLEIK |
| 1.2 nM | VH SEQ ID NO 562 / VL SEQ ID NO 382 (antibody, IgG4, V domains shown, humanized 11F2; IgG4 S228P/kappa) VH: QVQLQESGPGLVKPSDTLSLTCAVSGYSISSDSAWSWIRQPPGKGLEWIGYIQYSGSTNYNPSLKSRVTMSRDTSKNQFSLKLSSVTALDTAVYYCARSVNYYGNSFAVGPWGQGTLVTVSS VL: EIVLTQSPATLSLSPGERATLSCRASQGLSDYLHWYQQKPGEAPRLLIKYASQPATGIPARFSGSGSGTDFTLTISSLEPEDFAVYYCQNGHSFPLTFGQGTKLEIK |
| 8.3 nM | VH SEQ ID NO 562 / VL SEQ ID NO 366 (antibody, IgG4, V domains shown, humanized 11F2; IgG4 S228P/kappa) VH: QVQLQESGPGLVKPSDTLSLTCAVSGYSISSDSAWSWIRQPPGKGLEWIGYIQYSGSTNYNPSLKSRVTMSRDTSKNQFSLKLSSVTALDTAVYYCARSVNYYGNSFAVGPWGQGTLVTVSS VL: EIVLTQSPATLSLSPGERATLSCRASQGLSDYLAWYQQKPGEAPRLLIKYASQPATGIPARFSGSGSGTDFTLTISSLEPEDFAVYYCQNGHSFPLTFGQGTKLEIK |
